Reference: the supplement of paper PMC12042874
± gives the uncertainty stated by the source.

Experiment: amyloid nucleation score (Sup35N fusion, yeast selection) (log enrichment); library NNK3; higher = more nucleation; inactive = no reads after selection
Method in brief: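 Libraries of peptides of 20 random codons fused to Sup35N were expressed in psi-negative yeast and induced 24 hours with 100 μM copper sulfate. Selection was 7 days at 30°C on medium lacking adenine and uracil, and plasmid inserts were Illumina-sequenced before and after selection. Nucleation score is the DiMSum log enrichment of output over input reads, centred on the mode score of non-aggregating sequences, and sequences with under 100 input reads were left out.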

| Substance | amyloid nucleation score |
| --- | --- |
| GVPMCSWGMIILL | inactive |
| GVSNRHGGTIYRQRAMHSVG | inactive |
| GVWRLSVYT | inactive |
| GWGPGARGGLEDRGDCVCFL | inactive |
| GWLLRCVSTLGGLKTLLC | inactive |
| GYLLTVLLLSMFNSFDNDWL | inactive |
| GYMGVGRIVSA | inactive |
| GYNNVESGNKYMLEDDFAFS | inactive |
| GYQDAFIP | inactive |
| GYRRKNRHSWTDPGITALNK | inactive |
| GYVPMYVCLSPYHKTVLWLS | 0.447 ± 0.2 |
| GYWWELSSKVNVCAMMHRPW | inactive |
| HAEFSEHITCGGSGPSCFVG | inactive |
| HAFRVSLSLVVVCCVIWDTN | inactive |
| HANRSCCLPCIHLPFSRVLS | inactive |
| HAQCLMSIIEVS | -0.029 ± 1.1 |
| HCHDVGVLLIKFCNNLWCSH | 1.99 ± 0.1 |
| HCLLCNYRLWSACKCPGYVS | inactive |
| HCRDEYYIYNRI | inactive |
| HEKSIRVESMAVLIRPVTRS | inactive |
| HFARDPLSERSKFPLIF | 0.623 ± 0.15 |
| HFIKGGLHCVS | inactive |
| HFQCLMSVRSGSNQTRDILL | 1.28 ± 0.15 |
| HFSKHTVTNRPYDVHNLGKC | inactive |

| Substance | amyloid nucleation score |
| --- | --- |
| HFSLGLVMYLCSLGNVRP | 1.47 ± 0.11 |
| HGDVCMNMGYNRT | inactive |
| HGFERSRSGNRSGLIDDLGC | inactive |
| HGFFNLWWRARLHLAPLHHH | inactive |
| HGGCC | inactive |
| HGGIHCYFFYSYGDLEKEIL | 2.44 ± 0.078 |
| HGMPMVAFITFVVNIRGLCD | 0.079 ± 0.81 |
| HGWSS | inactive |
| HGWYSVFADSRRYCKRVRYT | inactive |
| HHAVYIVVRMADKACDWGCC | 1.84 ± 0.078 |
| HHLGRSLGIVTSLQLGIILL | inactive |
| HIEVCGTLLYCGDRQISVNN | 0.49 ± 0.27 |
| HIFHQIKANDHAIFLGNVSG | inactive |
| HIKKRYKLLAMLLMSDLR | inactive |
| HINISFISYYRRRMYYNVCG | 1.62 ± 0.092 |
| HIRFWSDNRT | 0.468 ± 0.2 |
| HIRRCEVTNTF | inactive |
| HITCVMSIKTRGLRMTERGS | 1.51 ± 0.096 |
| HITVNRSKGFDGSRTAPFQM | inactive |
| HIVLVSRLHITAGGRF | -0.179 ± 0.65 |
| HIWAHAFISLVLWLSPLSVS | inactive |
| HKFDNKIRPTWYVVLPIFNA | inactive |
| HKITVNLS | inactive |
| HKRIFGCVISVPFTSCFT | inactive |

| Substance | amyloid nucleation score |
| --- | --- |
| HKRLMFDMYHPIWMFYCSAC | inactive |
| HKWAI | inactive |
| HLHVVHKIAS | -0.471 ± 0.82 |
| HLLTLTI | 0.501 ± 0.26 |
| HLSLAVEFA | inactive |
| HLTHFQQILRFNKAETCVRT | inactive |
| HLTHVYVADSVGLKLFVYHP | 1.9 ± 0.072 |
| HLTLSAQRATSVVCERLQIS | inactive |
| HLWTFEITSTGYL | inactive |
| HMVSTDVTENLWFRQ | inactive |
| HNFYKGFDYHLECMGADTGE | inactive |
| HNSACFANSDEVSVASRAMT | 2.45 ± 0.08 |
| HNSRN | 0.186 ± 0.21 |
| HNVCTKAKTRMYRVERS | inactive |
| HNVFVFCNMAVIELQVNDWL | 3.26 ± 0.063 |
| HPMLFSFYVKGRVFLSRV | inactive |
| HPSVVLHGEATCTASRVLQV | inactive |
| HQPGSRLI | inactive |
| HREPTNSNRMEIELRKSVWR | inactive |
| HRLVGTNISSTR | inactive |
| HRMCVRRFRVFRESVEEVHF | inactive |
| HRSINCWAYVRL | inactive |
| HRSISLRLYWNIHVKCFLTY | inactive |
| HRVYLPGRWRLMISLSC | -0.201 ± 1.3 |

| Substance | amyloid nucleation score |
| --- | --- |
| HRWNMSWFGYFNLRLSVIET | inactive |
| HRYVKALRFF | inactive |
| HSDCDRTVTSGVELDSYGWT | inactive |
| HSIIRVSFLDMVCAGNSIVR | -0.504 ± 1.9 |
| HSIIVEWKC | inactive |
| HSLIVYHLS | inactive |
| HSMLDFFST | inactive |
| HSRVWGKYSGSLPGKM | inactive |
| HSRWMAFPWMLGPLLLNRNL | inactive |
| HSSSYCSSYKERSIPWSW | 0.93 ± 0.12 |
| HSTLSLMHDSYRACSWKCNA | inactive |
| HTYDCAAFCPAGAGNR | inactive |
| HVDTSPSYIPPGIKLVRQRM | -0.528 ± 0.36 |
| HVFIEFGKL | -0.259 ± 0.42 |
| HVFNGY | inactive |
| HVFRLCMGKTELAYFY | inactive |
| HVGAIMLLLLLTSERLMTLD | inactive |
| HVLYRRSSPYCVRWCNITER | inactive |
| HVSLNLDSQNCCMSECFA | inactive |
| HVTQLNGVAYSCEI | inactive |
| HVVFNIIFWYSGRIGLSDIT | 1.94 ± 0.084 |
| HVVHYDMFHDGLSLWDQEAR | inactive |
| HWFTLSKYGR | inactive |
| HYADSVESRSALLWLVSFLF | inactive |

| Substance | amyloid nucleation score |
| --- | --- |
| HYFGKT | inactive |
| HYKVPWF | inactive |
| HYMRMQTSLANRYIARNVAR | inactive |
| IALSTDSMPRYLEALRACGC | inactive |
| IANCRIS | 1.34 ± 0.094 |
| IAQIFLACRTVT | inactive |
| IARATFFINQR | 1.43 ± 0.15 |
| IARFGVKSVGWSFAENMSST | inactive |
| IATIFGVHFRQNDDWIVALY | inactive |
| IAWRQAGDFITLNLSIWMRL | inactive |
| ICEPADQV | inactive |
| ICFFRGAARMNCLGYQGITR | inactive |
| ICFGDKVRIKFFVPSIFSWY | inactive |
| ICFVSCKLFFVDSLCFCFAG | inactive |
| ICILADEYLMCGYGYFHFDY | inactive |
| ICLVEISDGAFRKR | inactive |
| ICMSMNMSADPGMPAIMFNY | inactive |
| ICRLVLIWVPRSSGGVSSSR | inactive |
| ICSFFGNSPVRLQVYFLWSW | inactive |
| ICSFRTWA | 0.978 ± 0.1 |
| ICSMYTTVSRNTEL | inactive |
| ICTVNMTNQSEC | inactive |
| ICYRWY | 0.192 ± 0.19 |
| IDALIYG | inactive |

| Substance | amyloid nucleation score |
| --- | --- |
| IDARRFQGFNISSYMN | 0.372 ± 0.28 |
| IDCGGFDDIRVVSGDDEKMW | inactive |
| IDDEIANSSFQVWLKGGFLV | inactive |
| IDHKCCNNTVS | inactive |
| IDILNG | 0.152 ± 0.71 |
| IDLKY | inactive |
| IDMILC | inactive |
| IDQCNIVGTRKNGHAL | inactive |
| IDTAFRSYCYDFDLANDLMG | inactive |
| IDTVNFKVLHVGI | inactive |
| IDYRMYYY | inactive |
| IEFGGNN | 1.68 ± 0.13 |
| IEFGVCKVRNVVNDVRFRRG | inactive |
| IEFRLWYG | inactive |
| IELLCGLDIT | inactive |
| IEQRLRLKSLSYFFINDVKI | inactive |
| IEREMCTGNLVPLNAWKRFH | inactive |
| IESKAWISVAGARFYSLGVG | inactive |
| IEWVRNTLSISLIERYRLNG | inactive |
| IFCST | inactive |
| IFGWLVDYLSFRVYKEDKGV | inactive |
| IFHGSLYGFHYEPCLQAWAA | inactive |
| IFIQLSDLMQSKVAHECGWC | inactive |
| IFLDNFFKSFFGRRGSKS | 0.662 ± 0.13 |

| Substance | amyloid nucleation score |
| --- | --- |
| IFLGYRNYDYFSFTVLVE | inactive |
| IFLYNVLIGLCLDNPYKLFG | inactive |
| IFQRKRRTYLS | inactive |
| IFSLYMGASCMWLMIVGWLD | inactive |
| IFSVFLLTMLEQRQKAHSLM | inactive |
| IFTDLVA | inactive |
| IFTTNCYISNFYNGWWDV | 2.91 ± 0.078 |
| IFYVWQLLYYGEQRGGS | 1.63 ± 0.088 |
| IGGRKALAALSVYHNVMRCL | inactive |
| IGITLFENHKFGLGLANVPG | inactive |
| IGMKFCAYVLLSYKAITMFG | inactive |
| IGNCFMTMGRLVSRQDSVPM | -0.427 ± 1 |
| IGRLMA | inactive |
| IGSFVKDKLSRRIGTGRMEI | inactive |
| IGYLDFVHSIENVVYNWGAS | inactive |
| IGYTRLLFLMDVTVGIRVGW | inactive |
| IHFMCMWVSNWYVLLVLKE | inactive |
| IHGHC | inactive |
